Laboratory results taken from paper PMC2978343.

Assays:
Ecl18kI R174A mutant [1] = target: Ecl18kI R174A mutant (UniProt O87963)
Ecl18kI R174A mutant [2] = target: Ecl18kI R174A mutant (UniProt O87963); assay: atomic force microscopy
[3] = target: Ecl18kI restriction endonuclease, wild type (UniProt O87963); assay: tethered particle motion

Row | phage lambda DNA cleavage activity, % of wt (Ecl18kI R174A mutant [1]) [%] | stoichiometry N (Ecl18kI R174A mutant [2]) | k unloop (loop breakage rate constant, tetramer to two DNA-bound dimers) [3] [s⁻¹] | Substance
1 | 0.2 | 2 | – | Ecl18kI R174A mutant (from UniProt O87963 1-305) (enzyme)
2 | – | – | 0.86 | Ecl18kI restriction endonuclease, wild type (from UniProt O87963 1-305) (enzyme)
